B1: Oligo I (dsDNA)
DNA 1: GCAGCCTCCGTCATGTGTTTTCTGGA
DNA 2: TCCAGAAAACACATGACGGAGGCTGC
B2: EWT (E, consensus E-box) (dsDNA)
DNA 1: GGAAGCAGACCACGTGGTCTGCTT
DNA 2: AAGCAGACCACGTGGTCTGCTTCC

Target: rUSF1 (recombinant His-USF1) (UniProt P22415 1-310)
Assay: EMSA; 20 mM HEPES (pH not stated), 0.1% NP40, 5 mM MgCl2, 50 mM KCl, 2% glycerol, 2 mM DTT, 50 ng/ml poly(dI-dC), room temperature, 20 ul, 5 ug nuclear extract; 5% native PAGE in 1x TBE
Conditions: protein: recombinant; tags: N-terminal His-tag; chain copies: 2; label: 5'-32P as probe; blunt

Sequence of rUSF1 (recombinant His-USF1) (P22415 whole entry): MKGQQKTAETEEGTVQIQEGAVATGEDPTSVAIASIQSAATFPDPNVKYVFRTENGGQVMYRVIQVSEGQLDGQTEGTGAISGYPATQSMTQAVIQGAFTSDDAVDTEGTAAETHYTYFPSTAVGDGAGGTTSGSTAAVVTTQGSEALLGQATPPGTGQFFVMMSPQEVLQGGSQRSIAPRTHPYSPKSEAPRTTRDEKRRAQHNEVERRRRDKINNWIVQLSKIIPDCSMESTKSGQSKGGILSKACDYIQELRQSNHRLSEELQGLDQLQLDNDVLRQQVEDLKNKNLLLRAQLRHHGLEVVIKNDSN

Row | Binder | binding result
1 | B1 | binds
2 | B2 | binds
